Here are results for one molecule from patent publication CN109384844A (INST OF BASIC MEDICAL SCIENCES THE ACADEMY OF MILITARY …, dated 2019).

For test [1], the target named is T1, Hla蛋白 (Staphylococcus aureus).
Test [2] deals with T1, Hla蛋白. This is another data set of the same source.

T1 sequence (Q2G1X0 27-319 limits assumed): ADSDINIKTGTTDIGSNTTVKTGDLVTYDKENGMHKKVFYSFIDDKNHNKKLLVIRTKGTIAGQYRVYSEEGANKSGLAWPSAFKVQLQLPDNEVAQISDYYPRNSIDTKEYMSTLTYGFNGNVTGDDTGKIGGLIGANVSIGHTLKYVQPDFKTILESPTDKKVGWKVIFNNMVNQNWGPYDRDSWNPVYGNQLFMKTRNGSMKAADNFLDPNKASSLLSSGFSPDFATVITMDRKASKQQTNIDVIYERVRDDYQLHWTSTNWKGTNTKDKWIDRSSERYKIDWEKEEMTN

B1: AAH-1抗体 (antibody, V domains shown)
VH: QMQLVQSGAEIRRPGSLVKVSCQASGGSFKNFALNWVRQAPGLGLQWMGSITPFLNVPTYAQQFQGRVTMSTDTSTSTAYMVLRRLTSDDTAVYYCARGNSLLDYWGQGTLVTVSS
VL: EIVLTQSPATLSVSPGDGATLSCRASQSVSGNLAWYQKKPGQAPRLLIYDTSIRAAGVPPRFSGSGSGTEFTLTISSLQSEDFAVYYCQQYHNLPPLTFGPGTKLEIK
In test [1], B1 came in with a half-maximal effective concentration (EC50) of 0.075 µg/mL. In test [2], this molecule returned an equilibrium dissociation constant (Kd) of 1.92 nM, a koff of 0.000255 s⁻¹ and an association rate constant (kon) of 133000 M⁻¹ s⁻¹.
